In IntAct's records for PubMed 15086532:

B1: Delta-type opioid receptor (Homo sapiens), P41143 (parent)
chain: MEPAPSAGAELQPPLFANASDAYPSACPSAGANASGPPGARSASSLALAIAITALYSAVCAVGLLGNVLVMFGIVRYTKMKTATNIYIFNLALADALATSTLPFQSAKYLMETWPFGELLCKAVLSIDYYNMFTSIFTLTMMSVDRYIAVCHPVKALDFRTPAKAKLINICIWVLASGVGVPIMVMAVTRPRDGAVVCMLQFPSPSWYWDTVTKICVFLFAFVVPILIITVCYGLMLLRLRSVRLLSGSKEKDRSLRRITRMVLVVVGAFVVCWAPIHIFVIVWTLVDIDRRDPLVVAALHLCIALGYANSSLNPVLYAFLDENFKRCFRQLCRKPCGRPDPSSFSRAREATARERVTACTPSDGPGGGAAA

Variants of: B1
Conditions: with gasp1_human GPRASP1, Q5JY77
gasp1_human GPRASP1, Q5JY77, sequence (Q5JY77 whole entry): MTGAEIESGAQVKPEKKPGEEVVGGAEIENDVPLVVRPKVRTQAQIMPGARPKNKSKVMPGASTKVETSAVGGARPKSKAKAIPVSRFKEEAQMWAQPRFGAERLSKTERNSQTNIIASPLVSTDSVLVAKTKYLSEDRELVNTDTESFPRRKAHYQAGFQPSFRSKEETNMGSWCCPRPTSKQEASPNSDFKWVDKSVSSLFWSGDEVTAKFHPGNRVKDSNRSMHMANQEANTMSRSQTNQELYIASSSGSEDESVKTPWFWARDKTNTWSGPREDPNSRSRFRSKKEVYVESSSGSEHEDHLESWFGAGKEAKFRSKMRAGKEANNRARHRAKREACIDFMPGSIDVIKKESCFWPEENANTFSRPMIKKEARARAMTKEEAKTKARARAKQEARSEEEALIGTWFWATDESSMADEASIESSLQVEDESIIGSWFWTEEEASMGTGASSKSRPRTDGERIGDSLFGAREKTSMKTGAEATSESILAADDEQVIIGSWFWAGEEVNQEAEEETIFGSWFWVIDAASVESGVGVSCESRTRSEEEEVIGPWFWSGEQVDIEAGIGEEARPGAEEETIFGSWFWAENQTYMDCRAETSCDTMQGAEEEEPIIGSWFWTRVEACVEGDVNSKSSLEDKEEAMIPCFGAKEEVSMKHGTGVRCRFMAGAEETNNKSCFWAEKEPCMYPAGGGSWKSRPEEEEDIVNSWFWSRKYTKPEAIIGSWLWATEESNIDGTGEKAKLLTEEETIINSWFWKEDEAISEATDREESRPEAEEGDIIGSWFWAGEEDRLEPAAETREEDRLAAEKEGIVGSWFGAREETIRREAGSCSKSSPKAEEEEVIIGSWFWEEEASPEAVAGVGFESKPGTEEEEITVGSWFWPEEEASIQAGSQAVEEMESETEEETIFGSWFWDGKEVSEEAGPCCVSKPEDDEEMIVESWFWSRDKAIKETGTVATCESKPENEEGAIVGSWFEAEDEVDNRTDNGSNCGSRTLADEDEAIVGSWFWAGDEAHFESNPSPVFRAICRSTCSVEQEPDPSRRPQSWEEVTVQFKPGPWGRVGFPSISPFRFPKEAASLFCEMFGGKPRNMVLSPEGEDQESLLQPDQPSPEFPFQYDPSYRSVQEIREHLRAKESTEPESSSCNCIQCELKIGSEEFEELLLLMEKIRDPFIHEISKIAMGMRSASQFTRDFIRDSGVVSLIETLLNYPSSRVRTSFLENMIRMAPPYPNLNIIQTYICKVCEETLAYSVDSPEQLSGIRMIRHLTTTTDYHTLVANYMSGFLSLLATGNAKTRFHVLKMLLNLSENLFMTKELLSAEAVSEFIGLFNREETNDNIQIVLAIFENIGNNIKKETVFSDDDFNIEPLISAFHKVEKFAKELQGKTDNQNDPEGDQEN

Row | effect of a mutation on the interaction | Variant
1 | decreasing interaction | F325A;K326A
